Test results reported in the supplement of paper PMC11246515.
± gives the standard deviation of the averaged measurements.

Test: total protein half-life in vivo (active degradation + dilution); higher = more stable protein
[1] = E. coli NCM3722 delta-clpP delta-lon delta-hslV, growth: N-lim chemostat, doubling time 6 h
[2] = E. coli NCM3722 delta-clpP, growth: N-lim chemostat, doubling time 6 h
[3] = E. coli NCM3722 delta-hslV, growth: N-lim chemostat, doubling time 6 h
[4] = E. coli NCM3722 delta-lon, growth: N-lim chemostat, doubling time 6 h
[5] = E. coli NCM3722 delta-smpB, growth: N-lim chemostat, doubling time 6 h
[6] = wild type E. coli NCM3722, growth: C-lim chemostat, doubling time 3 h
[7] = wild type E. coli NCM3722, growth: C-lim chemostat, doubling time 6 h
[8] = wild type E. coli NCM3722, growth: C-lim chemostat, doubling time 12 h
[9] = wild type E. coli NCM3722, growth: N-lim chemostat, doubling time 6 h
[10] = wild type E. coli NCM3722, growth: N-lim chemostat, doubling time 12 h
[11] = wild type E. coli NCM3722, growth: P-lim chemostat, doubling time 6 h
[12] = wild type E. coli NCM3722, growth: P-lim chemostat, doubling time 12 h

Sequence	total protein half-life in vivo [1] [h]	total protein half-life in vivo [2] [h]	total protein half-life in vivo [3] [h]	total protein half-life in vivo [4] [h]	total protein half-life in vivo [5] [h]	total protein half-life in vivo [6] [h]	total protein half-life in vivo [7] [h]	total protein half-life in vivo [8] [h]	total protein half-life in vivo [9] [h]	total protein half-life in vivo [10] [h]	total protein half-life in vivo [11] [h]	total protein half-life in vivo [12] [h]
MIEKLRNIAIIAHVDHGKTTLVDKLLQQSGTFDSRAETQERVMDSNDLEKERGITILAKNTAIKWNDYRINIVDTPGHADFGGEVERVMSMVDSVLLVVDAFDGPMPQTRFVTKKAFAYGLKPIVVINKVDRPGARPDWVVDQVFDLFVNLDATDEQLDFPIVYASALNGIAGLDHEDMAEDMTPLYQAIVDHVPAPDVDLDGPFQMQISQLDYNSYVGVIGIGRIKRGKVKPNQQVTIIDSEGKTRNAKVGKVLGHLGLERIETDLAEAGDIVAITGLGELNISDTVCDTQNVEALPALSVDEPTVSMFFCVNTSPFCGKEGKFVTSRQILDRLNKELVHNVALRVEETEDADAFRVSGRGELHLSVLIENMRREGFELAVSRPKVIFREIDGRKQEPYENVTLDVEEQHQGSVMQALGERKGDLKNMNPDGKGRVRLDYVIPSRGLIGFRSEFMTMTSGTGLLYSTFSHYDDVRPGEVGQRQNGVLISNGQGKAVAFALFGLQDRGKLFLGHGAEVYEGQIIGIHSRSNDLTVNCLTGKKLTNMRASGTDEAVVLVPPIRMTLEQALEFIDDDELVEVTPTSIRIRKRHLTENDRRRANRAPKDD	5.32 ± 0.47	4.79 ± 0.39	4.54 ± 0.41	5.61 ± 0.38	4.62 ± 0.21	2.899 ± 0.022	5.8018 ± 0.005	9.75 ± 0.82	4.387 ± 0.029	6.89 ± 0.16	5.58 ± 0.15	10.9 ± 0.83
MIERGKFRSLTLINWNGFFARTFDLDELVTTLSGGNGAGKSTTMAAFVTALIPDLTLLHFRNTTEAGATSGSRDKGLHGKLKAGVCYSMLDTINSRHQRVVVGVRLQQVAGRDRKVDIKPFAIQGLPMSVQPTQLVTETLNERQARVLPLNELKDKLEAMEGVQFKQFNSITDYHSLMFDLGIIARRLRSASDRSKFYRLIEASLYGGISSAITRSLRDYLLPENSGVRKAFQDMEAALRENRMTLEAIRVTQSDRDLFKHLISEATNYVAADYMRHANERRVHLDKALEFRRELHTSRQQLAAEQYKHVDMARELAEHNGAEGDLEADYQAASDHLNLVQTALRQQEKIERYEADLDELQIRLEEQNEVVAEAIERQQENEARAEAAELEVDELKSQLADYQQALDVQQTRAIQYNQAIAALNRAKELCHLPDLTADCAAEWLETFQAKELEATEKMLSLEQKMSMAQTAHSQFEQAYQLVVAINGPLARNEAWDVARELLREGVDQRHLAEQVQPLRMRLSELEQRLREQQEAERLLADFCKRQGKNFDIDELEALHQELEARIASLSDSVSNAREERMALRQEQEQLQSRIQSLMQRAPVWLAAQNSLNQLSEQCGEEFTSSQDVTEYLQQLLEREREAIVERDEVGARKNAVDEEIERLSQPGGSEDQRLNALAERFGGVLLSEIYDDVSLEDAPYFSALYGPSRHAIVVPDLSQVTEHLEGLTDCPEDLYLIEGDPQSFDDSVFSVDELEKAVVVKIADRQWRYSRFPEVPLFGRAARESRIESLHAEREVLSERFATLSFDVQKTQRLHQAFSRFIGSHLAVAFESDPEAEIRQLNSRRVELERALSNHENDNQQQRIQFEQAKEGVTALNRILPRLNLLADDSLADRVDEIRERLDEAQEAARFVQQFGNQLAKLEPIVSVLQSDPEQFEQLKEDYAYSQQMQRDARQQAFALTEVVQRRAHFSYSDSAEMLSGNSDLNEKLRERLEQAEAERTRAREALRGHAAQLSQYNQVLASLKSSYDTKKELLNDLQRELQDIGVRADSGAEERARIRRDELHAQLSNNRSRRNQLEKALTFCEAEMDNLTRKLRKLERDYFEMREQVVTAKAGWCAVMRMVKDNGVERRLHRRELAYLSADDLRSMSDKALGALRLAVADNEHLRDVLRMSEDPKRPERKIQFFVAVYQHLRERIRQDIIRTDDPVEAIEQMEIELSRLTEELTSREQKLAISSRSVANIIRKTIQREQNRIRMLNQGLQNVSFGQVNSVRLNVNVRETHAMLLDVLSEQHEQHQDLFNSNRLTFSEALAKLYQRLNPQIDMGQRTPQTIGEELLDYRNYLEMEVEVNRGSDGWLRAESGALSTGEAIGTGMSILVMVVQSWEDESRRLRGKDISPCRLLFLDEAARLDARSIATLFELCERLQMQLIIAAPENISPEKGTTYKLVRKVFQNTEHVHVVGLRGFAPQLPETLPGTDEAPSQAS	6.61 ± 0.52	6.45 ± 0.38	4.36 ± 0.13	4.16 ± 0.34	4.2 ± 0.079	2.91 ± 0.16	5.16 ± 0.064	8.24 ± 0.095	4.374 ± 0.017	5.78 ± 0.3	4.74 ± 0.084	6.65 ± 0.25
MIETLLEVRNLSKTFRYRTGWFRRQTVEAVKPLSFTLREGQTLAIIGENGSGKSTLAKMLAGMIEPTSGELLIDDHPLHFGDYSFRSQRIRMIFQDPSTSLNPRQRISQILDFPLRLNTDLEPEQRRKQIIETMRMVGLLPDHVSYYPHMLAPGQKQRLGLARALILRPKVIIADEALASLDMSMRSQLINLMLELQEKQGISYIYVTQHIGMMKHISDQVLVMHQGEVVERGSTADVLASPLHELTKRLIAGHFGEALTADAWRKDR [P0AAH8]	5.82 ± 0.14	5.86 ± 0.16	5.99 ± 0.16	5.26 ± 1.3	5.78 ± 0.3	2.97 ± 0.16	5.78 ± 0.22	11.5 ± 2.9	5.53 ± 0.077	12.1 ± 1.1	6.03 ± 0.55	12.51 ± 0.086
MIFTSSCCDNLSIDEIIERAEKGDCEAQYIVGFYYNRDSAIDSPDDEKAFYWLKLAAEQGHCEAQYSLGQKYTEDKSRHKDNEQAIFWLKKAALQGHTFASNALGWTLDRGEAPNYKEAVVWYQIAAESGMSYAQNNLGWMYRNGNGVAKDYALAFFWYKQAALQGHSDAQNNLADLYEDGKGVAQNKTLAAFWYLKSAQQGNRHAQFQIAWDYNAGEGVDQDYKQAMYWYLKAAAQGSVGAYVNIGYMYKHGQGVEKDYQAAFEWFTKAAECNDATAWYNLAIMYHYGEGRPVDLRQALDLYRKVQSSGTRDVSQEIRETEDLL	6.2	–	–	–	–	–	–	–	–	–	–	–
MIGRLRGIIIEKQPPLVLIEVGGVGYEVHMPMTCFYELPEAGQEAIVFTHFVVREDAQLLYGFNNKQERTLFKELIKTNGVGPKLALAILSGMSAQQFVNAVEREEVGALVKLPGIGKKTAERLIVEMKDRFKGLHGDLFTPAADLVLTSPASPATDDAEQEAVAALVALGYKPQEASRMVSKIARPDASSETLIREALRAAL [P0A809]	5.02 ± 0.64	4.88 ± 0.9	5.46 ± 0.47	4.88 ± 0.49	5.59 ± 0.069	2.99 ± 0.28	5.04 ± 0.43	10.3 ± 3.1	4.95 ± 0.26	7.6 ± 0.43	3.73 ± 0.86	10.13 ± 0.068
MIIPALDLIDGTVVRLHQGDYGKQRDYGNDPLPRLQDYAAQGAEVLHLVDLTGAKDPAKRQIPLIKTLVAGVNVPVQVGGGVRSEEDVAALLEAGVARVVVGSTAVKSQDMVKGWFERFGADALVLALDVRIDEQGNKQVAVSGWQENSGVSLEQLVETYLPVGLKHVLCTDISRDGTLAGSNVSLYEEVCARYPQVAFQSSGGIGDIDDVAALRGTGVRGVIVGRALLEGKFTVKEAIACWQNA	4.64 ± 0.11	3.46 ± 0.32	4.07 ± 0.29	4.52 ± 0.096	3.23 ± 0.34	3.21 ± 0.094	5.72 ± 0.66	10 ± 1.4	3.66 ± 0.097	5.29 ± 0.65	5.28 ± 0.072	9.43 ± 0.71
MIIRDENYFTDKYELTRTHSEVLEAVKVVKPGKTLDLGCGNGRNSLYLAANGYDVDAWDKNAMSIANVERIKSIENLDNLHTRVVDLNNLTFDRQYDFILSTVVLMFLEAKTIPGLIANMQRCTKPGGYNLIVAAMDTADYPCTVGFPFAFKEGELRRYYEGWERVKYNEDVGELHRTDANGNRIKLRFATMLARKK	5.25 ± 0.98	4.08 ± 0.48	4.13 ± 0.29	5.98 ± 0.65	3.94 ± 0.12	2.93 ± 0.1	5.19 ± 0.19	8.23 ± 1.5	4.09 ± 0.12	6.9 ± 0.16	6.01 ± 0.67	11 ± 0.36
MIKFLSALILLLVTTAAQAERIRDLTSVQGVRQNSLIGYGLVVGLDGTGDQTTQTPFTTQTLNNMLSQLGITVPTGTNMQLKNVAAVMVTASLPPFGRQGQTIDVVVSSMGNAKSLRGGTLLMTPLKGVDSQVYALAQGNILVGGAGASAGGSSVQVNQLNGGRITNGAVIERELPSQFGVGNTLNLQLNDEDFSMAQQIADTINRVRGYGSATALDARTIQVRVPSGNSSQVRFLADIQNMQVNVTPQDAKVVINSRTGSVVMNREVTLDSCAVAQGNLSVTVNRQANVSQPDTPFGGGQTVVTPQTQIDLRQSGGSLQSVRSSASLNNVVRALNALGATPMDLMSILQSMQSAGCLRAKLEII [P0A6S3]	–	–	–	–	–	2.203 ± 0.022	4.68	8.58 ± 1.3	–	–	–	–
MIKHLVAPLVFTSLILTGCQSPQGKFTPEQVAAMQSYGFTESAGDWSLGLSDAILFAKNDYKLLPESQQQIQTMAAKLASTGLTHARMDGHTDNYGEDSYNEGLSLKRANVVADAWAMGGQIPRSNLTTQGLGKKYPIASNKTAQGRAENRRVAVVITTP	1.39	–	–	–	–	0.967	–	–	1.84	–	1.9	4.97
